Test results published in US20260167699A1 (Chugai, published 2026).

T1: FcγRIIa(H) extracellular domain, His-tagged (human, UniProt P12318 34-217)
T1 construct: extracellular domain; also called 2aH
T1 sequence: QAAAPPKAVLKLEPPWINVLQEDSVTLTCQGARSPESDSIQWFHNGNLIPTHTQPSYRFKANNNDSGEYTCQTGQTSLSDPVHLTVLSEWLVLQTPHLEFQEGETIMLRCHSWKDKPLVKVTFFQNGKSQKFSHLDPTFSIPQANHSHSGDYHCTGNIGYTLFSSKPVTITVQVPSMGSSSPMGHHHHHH

T2: FcγRIIa(R) extracellular domain, His-tagged (human, UniProt P12318 34-217)
T2 construct: extracellular domain; also called 2aR
T2 sequence: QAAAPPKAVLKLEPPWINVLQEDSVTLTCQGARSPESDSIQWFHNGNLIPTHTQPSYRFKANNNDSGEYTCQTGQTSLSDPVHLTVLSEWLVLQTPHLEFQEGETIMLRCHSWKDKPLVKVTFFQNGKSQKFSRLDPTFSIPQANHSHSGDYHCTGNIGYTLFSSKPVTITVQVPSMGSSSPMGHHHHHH

T3: FcγRIIb extracellular domain, His-tagged (human, UniProt P31994 43-217)
T3 construct: extracellular domain; also called 2b
T3 sequence: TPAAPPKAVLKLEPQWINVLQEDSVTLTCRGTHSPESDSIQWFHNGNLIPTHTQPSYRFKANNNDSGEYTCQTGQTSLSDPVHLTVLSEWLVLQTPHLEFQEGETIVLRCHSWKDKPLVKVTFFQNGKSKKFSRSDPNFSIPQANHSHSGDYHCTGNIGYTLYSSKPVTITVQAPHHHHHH


Assays:
Test in all cases: SPR, vs GpH7-A5/GpH7-B3/GpL16-k0 =100
[1] = target: T1, FcγRIIa(H) extracellular domain, …
[2] = target: T4, FcγRIa extracellular domain, His-tagged (human, UniProt P12314 16-292)
T4 construct: extracellular domain; also called 1a

[3] = target: T2, FcγRIIa(R) extracellular domain, …
[4] = target: T5, FcγRIIIa extracellular domain, His-tagged (human, UniProt P08637 17-208)
T5 construct: extracellular domain; also called 3a

[5] = target: T3, FcγRIIb extracellular domain, His-tagged

T4 sequence (P12314 other isoform, or with tags, fused parts or gaps): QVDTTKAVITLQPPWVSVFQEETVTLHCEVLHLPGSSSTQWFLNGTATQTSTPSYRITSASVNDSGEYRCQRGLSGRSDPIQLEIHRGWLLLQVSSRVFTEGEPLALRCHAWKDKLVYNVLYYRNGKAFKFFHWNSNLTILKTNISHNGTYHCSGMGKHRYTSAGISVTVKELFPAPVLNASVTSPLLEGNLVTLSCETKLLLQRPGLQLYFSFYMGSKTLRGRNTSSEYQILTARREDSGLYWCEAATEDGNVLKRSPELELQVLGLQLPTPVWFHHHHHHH
T5 sequence (P08637 other isoform, or with tags, fused parts or gaps): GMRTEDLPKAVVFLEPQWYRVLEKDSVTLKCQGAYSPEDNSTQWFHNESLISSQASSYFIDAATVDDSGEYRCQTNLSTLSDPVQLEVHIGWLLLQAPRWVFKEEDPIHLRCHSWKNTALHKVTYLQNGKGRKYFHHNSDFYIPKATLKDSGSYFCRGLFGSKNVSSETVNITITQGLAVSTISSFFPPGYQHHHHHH

Row | Binder | He/Con 2aH [1] | He/Con 1a [2] | He/Con 2aR [3] | He/Con 3a [4] | He/Con 2b [5]
1 | GpH7-A5/GpH7-B3 variant Q295_14T/GpL16-k0 (antibody, human IgG1, kappa) heavy 1: not shown heavy 2: not shown light: DIVMTQSPLSLPVTPGEPASISCQASESLVHSNRNTYLHWYLQKPGQSPQLLIYKVSNRFSGVPDRFSGSGSGTDFTLKISRVEAEDVGVYYCSQNTHVPPTFGQGTKVEIERTVAAPSVFIFPPSDEQLKSGTASVVCLLNNFYPREAKVQWKVDNALQSGNSQESVTEQDSKDSTYSLSSTLTLSKADYEKHKVYACEVTHQGLSSPVTKSFNRGEC | 86.2 % of control | 101 % of control | 79.2 % of control | 120 % of control | 74.9 % of control
2 | GpH7-A5/GpH7-B3 variant S239_09D/GpL16-k0 (antibody, human IgG1, kappa) heavy 1: not shown heavy 2: not shown light: DIVMTQSPLSLPVTPGEPASISCQASESLVHSNRNTYLHWYLQKPGQSPQLLIYKVSNRFSGVPDRFSGSGSGTDFTLKISRVEAEDVGVYYCSQNTHVPPTFGQGTKVEIERTVAAPSVFIFPPSDEQLKSGTASVVCLLNNFYPREAKVQWKVDNALQSGNSQESVTEQDSKDSTYSLSSTLTLSKADYEKHKVYACEVTHQGLSSPVTKSFNRGEC | 111 % of control | 104 % of control | 129 % of control | 156 % of control | 209 % of control
3 | GpH7-A5/GpH7-B3 variant Q295_18N/GpL16-k0 (antibody, human IgG1, kappa) heavy 1: not shown heavy 2: not shown light: DIVMTQSPLSLPVTPGEPASISCQASESLVHSNRNTYLHWYLQKPGQSPQLLIYKVSNRFSGVPDRFSGSGSGTDFTLKISRVEAEDVGVYYCSQNTHVPPTFGQGTKVEIERTVAAPSVFIFPPSDEQLKSGTASVVCLLNNFYPREAKVQWKVDNALQSGNSQESVTEQDSKDSTYSLSSTLTLSKADYEKHKVYACEVTHQGLSSPVTKSFNRGEC | 87.8 % of control | 101 % of control | 81.7 % of control | 85.7 % of control | 72.8 % of control
4 | GpH7-A5/GpH7-B3 variant S239_01G/GpL16-k0 (antibody, human IgG1, kappa) heavy 1: not shown heavy 2: not shown light: DIVMTQSPLSLPVTPGEPASISCQASESLVHSNRNTYLHWYLQKPGQSPQLLIYKVSNRFSGVPDRFSGSGSGTDFTLKISRVEAEDVGVYYCSQNTHVPPTFGQGTKVEIERTVAAPSVFIFPPSDEQLKSGTASVVCLLNNFYPREAKVQWKVDNALQSGNSQESVTEQDSKDSTYSLSSTLTLSKADYEKHKVYACEVTHQGLSSPVTKSFNRGEC | 93.8 % of control | 104 % of control | 120 % of control | 72 % of control | 146 % of control
5 | GpH7-A5/GpH7-B3 variant Q295_15Y/GpL16-k0 (antibody, human IgG1, kappa) heavy 1: not shown heavy 2: not shown light: DIVMTQSPLSLPVTPGEPASISCQASESLVHSNRNTYLHWYLQKPGQSPQLLIYKVSNRFSGVPDRFSGSGSGTDFTLKISRVEAEDVGVYYCSQNTHVPPTFGQGTKVEIERTVAAPSVFIFPPSDEQLKSGTASVVCLLNNFYPREAKVQWKVDNALQSGNSQESVTEQDSKDSTYSLSSTLTLSKADYEKHKVYACEVTHQGLSSPVTKSFNRGEC | 89.3 % of control | 100 % of control | 82 % of control | 81.5 % of control | 73.3 % of control
6 | GpH7-A5/GpH7-B3 variant S239_10E/GpL16-k0 (antibody, human IgG1, kappa) heavy 1: not shown heavy 2: not shown light: DIVMTQSPLSLPVTPGEPASISCQASESLVHSNRNTYLHWYLQKPGQSPQLLIYKVSNRFSGVPDRFSGSGSGTDFTLKISRVEAEDVGVYYCSQNTHVPPTFGQGTKVEIERTVAAPSVFIFPPSDEQLKSGTASVVCLLNNFYPREAKVQWKVDNALQSGNSQESVTEQDSKDSTYSLSSTLTLSKADYEKHKVYACEVTHQGLSSPVTKSFNRGEC | 108 % of control | 108 % of control | 127 % of control | 171 % of control | 183 % of control
7 | GpH7-A5/GpH7-B3 variant Q295_16H/GpL16-k0 (antibody, human IgG1, kappa) heavy 1: not shown heavy 2: not shown light: DIVMTQSPLSLPVTPGEPASISCQASESLVHSNRNTYLHWYLQKPGQSPQLLIYKVSNRFSGVPDRFSGSGSGTDFTLKISRVEAEDVGVYYCSQNTHVPPTFGQGTKVEIERTVAAPSVFIFPPSDEQLKSGTASVVCLLNNFYPREAKVQWKVDNALQSGNSQESVTEQDSKDSTYSLSSTLTLSKADYEKHKVYACEVTHQGLSSPVTKSFNRGEC | 90.1 % of control | 101 % of control | 80.5 % of control | 80.2 % of control | 70.3 % of control
8 | GpH7-A5/GpH7-B3 variant S239_03V/GpL16-k0 (antibody, human IgG1, kappa) heavy 1: not shown heavy 2: not shown light: DIVMTQSPLSLPVTPGEPASISCQASESLVHSNRNTYLHWYLQKPGQSPQLLIYKVSNRFSGVPDRFSGSGSGTDFTLKISRVEAEDVGVYYCSQNTHVPPTFGQGTKVEIERTVAAPSVFIFPPSDEQLKSGTASVVCLLNNFYPREAKVQWKVDNALQSGNSQESVTEQDSKDSTYSLSSTLTLSKADYEKHKVYACEVTHQGLSSPVTKSFNRGEC | 88 % of control | 98.9 % of control | 94.1 % of control | 72.4 % of control | 110 % of control
9 | GpH7-A5/GpH7-B3 variant S239_08L/GpL16-k0 (antibody, human IgG1, kappa) heavy 1: not shown heavy 2: not shown light: DIVMTQSPLSLPVTPGEPASISCQASESLVHSNRNTYLHWYLQKPGQSPQLLIYKVSNRFSGVPDRFSGSGSGTDFTLKISRVEAEDVGVYYCSQNTHVPPTFGQGTKVEIERTVAAPSVFIFPPSDEQLKSGTASVVCLLNNFYPREAKVQWKVDNALQSGNSQESVTEQDSKDSTYSLSSTLTLSKADYEKHKVYACEVTHQGLSSPVTKSFNRGEC | 101 % of control | 103 % of control | 114 % of control | 90 % of control | 142 % of control
10 | GpH7-A5/GpH7-B3 variant S239_06M/GpL16-k0 (antibody, human IgG1, kappa) heavy 1: not shown heavy 2: not shown light: DIVMTQSPLSLPVTPGEPASISCQASESLVHSNRNTYLHWYLQKPGQSPQLLIYKVSNRFSGVPDRFSGSGSGTDFTLKISRVEAEDVGVYYCSQNTHVPPTFGQGTKVEIERTVAAPSVFIFPPSDEQLKSGTASVVCLLNNFYPREAKVQWKVDNALQSGNSQESVTEQDSKDSTYSLSSTLTLSKADYEKHKVYACEVTHQGLSSPVTKSFNRGEC | 95.4 % of control | 102 % of control | 94.7 % of control | 73.9 % of control | 102 % of control
11 | GpH7-A5/GpH7-B3 variant S239_07I/GpL16-k0 (antibody, human IgG1, kappa) heavy 1: not shown heavy 2: not shown light: DIVMTQSPLSLPVTPGEPASISCQASESLVHSNRNTYLHWYLQKPGQSPQLLIYKVSNRFSGVPDRFSGSGSGTDFTLKISRVEAEDVGVYYCSQNTHVPPTFGQGTKVEIERTVAAPSVFIFPPSDEQLKSGTASVVCLLNNFYPREAKVQWKVDNALQSGNSQESVTEQDSKDSTYSLSSTLTLSKADYEKHKVYACEVTHQGLSSPVTKSFNRGEC | 88.5 % of control | 101 % of control | 95.9 % of control | 75 % of control | 108 % of control
12 | GpH7-A5/GpH7-B3 variant S239_14T/GpL16-k0 (antibody, human IgG1, kappa) heavy 1: not shown heavy 2: not shown light: DIVMTQSPLSLPVTPGEPASISCQASESLVHSNRNTYLHWYLQKPGQSPQLLIYKVSNRFSGVPDRFSGSGSGTDFTLKISRVEAEDVGVYYCSQNTHVPPTFGQGTKVEIERTVAAPSVFIFPPSDEQLKSGTASVVCLLNNFYPREAKVQWKVDNALQSGNSQESVTEQDSKDSTYSLSSTLTLSKADYEKHKVYACEVTHQGLSSPVTKSFNRGEC | 95.9 % of control | 104 % of control | 97.4 % of control | 93 % of control | 98.6 % of control
13 | GpH7-A5/GpH7-B3 variant S239_18N/GpL16-k0 (antibody, human IgG1, kappa) heavy 1: not shown heavy 2: not shown light: DIVMTQSPLSLPVTPGEPASISCQASESLVHSNRNTYLHWYLQKPGQSPQLLIYKVSNRFSGVPDRFSGSGSGTDFTLKISRVEAEDVGVYYCSQNTHVPPTFGQGTKVEIERTVAAPSVFIFPPSDEQLKSGTASVVCLLNNFYPREAKVQWKVDNALQSGNSQESVTEQDSKDSTYSLSSTLTLSKADYEKHKVYACEVTHQGLSSPVTKSFNRGEC | 91.1 % of control | 104 % of control | 104 % of control | 104 % of control | 121 % of control
14 | GpH7-A5/GpH7-B3 variant S239_02A/GpL16-k0 (antibody, human IgG1, kappa) heavy 1: not shown heavy 2: not shown light: DIVMTQSPLSLPVTPGEPASISCQASESLVHSNRNTYLHWYLQKPGQSPQLLIYKVSNRFSGVPDRFSGSGSGTDFTLKISRVEAEDVGVYYCSQNTHVPPTFGQGTKVEIERTVAAPSVFIFPPSDEQLKSGTASVVCLLNNFYPREAKVQWKVDNALQSGNSQESVTEQDSKDSTYSLSSTLTLSKADYEKHKVYACEVTHQGLSSPVTKSFNRGEC | 89.9 % of control | 103 % of control | 89.8 % of control | 70.9 % of control | 91.6 % of control
